# Assays:
# [1] = target: human EGFR.Fc (extracellular domain of EGFR) (human) (UniProt P00533); experiment: SPR
# [2] = target: human HER2.Fc (extracellular domain of HER2) (human) (UniProt P04626); experiment: SPR
Substance,Kd [1],koff [1],kon [1],Kd [2],koff [2],kon [2]
Z_(EGFR:1907) (designed binder),7060 pM,0.000666 s⁻¹,94300 M⁻¹ s⁻¹,–,–,–
Z_(HER2:342) (designed binder),–,–,–,76 pM,0.000111 s⁻¹,1.45e+06 M⁻¹ s⁻¹
Z_(HER2:342).BirA* (designed binder),–,–,–,10.9 pM,1.14e-07 s⁻¹,10400 M⁻¹ s⁻¹
